Laboratory results from US20030068675, “Position dependent recognition of GNN nucleotide triplets by zinc fingers” (published 2003).
Positions count from the first letter of the chain named.

Experiments:
Assay in all cases: EMSA
Settings in all cases: tags: MBP fusion
ZFP SBS#731 = ZFP SBS#731 (synthetic)
Procedure, shortened: (§1)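 Purified ZFP was titrated against labeled double-stranded target (1 nM or lower, at least 10-fold below expected Kd) carrying the natural binding site with flanks. Binding buffer was 10 mM Tris pH 7.5, 100 mM KCl, 1 mM MgCl2, 0.1 mM ZnCl2, 5 mM DTT, 10% glycerol, 0.02% BSA, with equilibration for at least 45 min. Bound and free target were separated on a 10% polyacrylamide gel.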

ZFP SBS#741 = ZFP SBS#741 (synthetic)
Procedure, shortened: as §1

ZFP SBS#746 = ZFP SBS#746 (synthetic)
Procedure, shortened: as §1

ZFP SBS#722 = target: T1, ZFP SBS#722 (synthetic)
T1 chain: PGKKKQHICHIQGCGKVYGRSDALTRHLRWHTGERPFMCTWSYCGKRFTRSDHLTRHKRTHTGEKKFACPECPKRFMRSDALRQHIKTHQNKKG
Procedure, shortened: as §1

ZFP SBS#704 = ZFP SBS#704 (synthetic)
Procedure, shortened: as §1

ZFP SBS#740 = target: T2, ZFP SBS#740 (synthetic)
T2 chain: T1 chain with R20Q, D22G, A23S, H53A, T55A, A81N, L82R, R83T, Q84A
Procedure, shortened: as §1

ZFP SBS#607 = ZFP SBS#607 (synthetic)
Procedure, shortened: as §1

ZFP SBS#718 = target: T3, ZFP SBS#718 (synthetic)
T3 chain: T1 chain with R20Q, D22G, A23S, R50Q, D52G, T55Q, R83T, Q84R
Procedure, shortened: as §1

ZFP SBS#717 = ZFP SBS#717 (synthetic)
Procedure, shortened: as §1

ZFP SBS#716 = target: T4, ZFP SBS#716 (synthetic)
T4 chain: T1 chain with R20Q, D22G, A23S, R50Q, D52G, T55Q, S79G, R83T, Q84S
Procedure, shortened: as §1

ZFP SBS#736 = target: T5, ZFP SBS#736 (synthetic, UniProt P08047)
T5 chain: T1 chain with A23H, T25A, H53A, T55S, A81N, R83S, Q84R
Procedure, shortened: as §1

ZFP SBS#752 = target: T6, ZFP SBS#752 (synthetic, UniProt P08047)
T6 chain: T1 chain with D22H, A23H, T25A, H53A, T55S, A81N, R83S, Q84R
Procedure, shortened: as §1

ZFP SBS#720 = target: T7, ZFP SBS#720 (synthetic)
T7 chain: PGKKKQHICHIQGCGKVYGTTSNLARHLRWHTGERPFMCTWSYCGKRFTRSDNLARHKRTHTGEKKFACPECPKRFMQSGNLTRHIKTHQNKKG
Procedure, shortened: as §1

ZFP SBS#726 = ZFP SBS#726 (synthetic)
Procedure, shortened: as §1

ZFP SBS#744 = target: T8, ZFP SBS#744 (synthetic)
T8 chain: T1 chain with R20Q, S21R, D22S, T25A, R26S, T55S, A81T, R83K
Procedure, shortened: as §1

ZFP SBS#742 = target: T9, ZFP SBS#742 (synthetic)
T9 chain: T1 chain with R20Q, S21R, D22G, T25A, R26S, T55S, A81T, R83K
Procedure, shortened: as §1

ZFP SBS#745 = target: T10, ZFP SBS#745 (synthetic)
T10 chain: T1 chain with R20Q, S21R, D22S, T25A, R26S, T55S, A81T, R83T
Procedure, shortened: as §1

ZFP SBS#743 = target: T11, ZFP SBS#743 (synthetic)
T11 chain: T1 chain with R20Q, S21R, D22G, T25A, R26S, T55S, A81T, R83T
Procedure, shortened: as §1

ZFP SBS#747 = target: T12, ZFP SBS#747 (synthetic)
T12 chain: T1 chain with A23H, R26T, R50Q, D52S, H53A, T55R, R56T, R78Q, D80G, Q84E
Procedure, shortened: as §1

ZFP SBS#427 = ZFP SBS#427 (synthetic)
Procedure, shortened: as §1

ZFP SBS#374 = ZFP SBS#374 (synthetic)
Procedure, shortened: as §1

ZFP SBS#430 = target: T13, ZFP SBS#430 (synthetic)
T13 chain: T7 chain with T20E, T21K, S22A, A25T, R50D, D52S, A55T, S79Q, G80S, T83A
Procedure, shortened: as §1

ZFP SBS#568 = target: T14, ZFP SBS#568 (synthetic)
T14 chain: T7 chain with T20E, T21K, S22A, A25T, R50D, D52S, A55T, Q78T, G80A, T83S
Procedure, shortened: as §1

ZFP SBS#719 = target: T15, ZFP SBS#719 (synthetic)
T15 chain: T1 chain with H53A, R56S, R78D, S79R, D80S, A81H, R83A, Q84R
Procedure, shortened: as §1

ZFP SBS#724 = target: T16, ZFP SBS#724 (synthetic)
T16 chain: T1 chain with H53A, T55R, R56Q, R78D, S79R, D80S, A81H, R83A, Q84R
Procedure, shortened: as §1

ZFP SBS#757 = target: T17, ZFP SBS#757 (synthetic, UniProt P08047)
T17 chain: T1 chain with R20Q, D22S, A23D, T25R, H53E, T55Q, A81H, Q84E
Procedure, shortened: as §1

ZFP SBS#758 = target: T18, ZFP SBS#758 (synthetic, UniProt P08047)
T18 chain: T1 chain with R20Q, D22S, A23D, T25R, S51A, H53T, T55R, A81H, Q84E
Procedure, shortened: as §1

ZFP SBS#734 = ZFP SBS#734 (synthetic)
Procedure, shortened: as §1

ZFP SBS#567 = target: T19, ZFP SBS#567 (synthetic)
T19 chain: T7 chain with T20E, T21K, S22A, A25T, R50T, D52A, A55S, S79R, G80S, T83V
Procedure, shortened: as §1

ZFP SBS#428 = ZFP SBS#428 (synthetic)
Procedure, shortened: as §1

ZFP SBS#429 = ZFP SBS#429 (synthetic)
Procedure, shortened: as §1

ZFP SBS#733 = ZFP SBS#733 (synthetic)
Procedure, shortened: as §1

ZFP SBS#732 = ZFP SBS#732 (synthetic)
Procedure, shortened: as §1

ZFP SBS#725 = ZFP SBS#725 (synthetic)
Procedure, shortened: as §1

ZFP SBS#728 = target: T20, ZFP SBS#728 (synthetic)
T20 chain: T7 chain with T20R, T21S, S22D, Q78D, G80S, N81K, T83S
Procedure, shortened: as §1

ZFP SBS#751 = ZFP SBS#751 (synthetic)
Procedure, shortened: as §1

ZFP SBS#713 = target: T21, ZFP SBS#713 (synthetic)
T21 chain: T7 chain with T20R, T21S, S22D, Q78M, G80H, N81H, T83S
Procedure, shortened: as §1

ZFP SBS#712 = target: T22, ZFP SBS#712 (synthetic)
T22 chain: T7 chain with T20R, T21S, S22D, Q78M, G80D, N81H, T83S
Procedure, shortened: as §1

Chain of ZFP SBS#746 (synthetic) (chain, as listed by the source): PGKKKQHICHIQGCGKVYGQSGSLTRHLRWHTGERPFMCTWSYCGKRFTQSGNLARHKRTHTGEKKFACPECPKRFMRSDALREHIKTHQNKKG
Chain of ZFP SBS#427 (synthetic) (chain, as listed by the source): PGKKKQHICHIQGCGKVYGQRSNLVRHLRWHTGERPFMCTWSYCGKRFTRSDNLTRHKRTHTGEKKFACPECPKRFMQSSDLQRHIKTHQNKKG
Chain of ZFP SBS#731 (synthetic) (chain, as listed by the source): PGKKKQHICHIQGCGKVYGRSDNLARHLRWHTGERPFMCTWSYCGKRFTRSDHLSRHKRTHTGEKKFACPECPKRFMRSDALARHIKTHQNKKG
Chain of ZFP SBS#429 (synthetic) (chain, as listed by the source): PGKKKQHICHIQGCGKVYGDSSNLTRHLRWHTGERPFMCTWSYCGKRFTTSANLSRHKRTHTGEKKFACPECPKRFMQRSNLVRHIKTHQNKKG
Chain of ZFP SBS#374 (synthetic) (chain, as listed by the source): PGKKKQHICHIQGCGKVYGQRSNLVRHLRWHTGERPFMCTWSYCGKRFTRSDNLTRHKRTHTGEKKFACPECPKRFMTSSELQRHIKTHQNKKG
Chain of ZFP SBS#704 (synthetic) (chain, as listed by the source): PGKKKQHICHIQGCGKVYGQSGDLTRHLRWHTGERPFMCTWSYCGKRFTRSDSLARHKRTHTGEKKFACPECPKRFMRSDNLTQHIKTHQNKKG
Chain of ZFP SBS#726 (synthetic) (chain, as listed by the source): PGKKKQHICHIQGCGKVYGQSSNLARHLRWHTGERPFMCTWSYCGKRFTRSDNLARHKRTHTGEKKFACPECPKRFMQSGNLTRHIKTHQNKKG
Chain of ZFP SBS#734 (synthetic) (chain, as listed by the source): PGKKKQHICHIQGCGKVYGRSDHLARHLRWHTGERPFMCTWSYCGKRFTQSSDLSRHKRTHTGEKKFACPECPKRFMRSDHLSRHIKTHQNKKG
Chain of ZFP SBS#741 (synthetic) (chain, as listed by the source): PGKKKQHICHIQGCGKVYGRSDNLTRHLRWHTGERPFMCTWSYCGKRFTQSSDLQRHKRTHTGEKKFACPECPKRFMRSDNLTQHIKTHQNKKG
Chain of ZFP SBS#751 (synthetic) (chain, as listed by the source): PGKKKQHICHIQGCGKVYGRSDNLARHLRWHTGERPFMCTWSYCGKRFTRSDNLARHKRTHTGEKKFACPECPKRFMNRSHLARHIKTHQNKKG
Chain of ZFP SBS#428 (synthetic) (chain, as listed by the source): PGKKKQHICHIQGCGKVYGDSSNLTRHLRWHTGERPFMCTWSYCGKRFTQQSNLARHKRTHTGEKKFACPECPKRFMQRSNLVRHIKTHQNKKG
Chain of ZFP SBS#725 (synthetic) (chain, as listed by the source): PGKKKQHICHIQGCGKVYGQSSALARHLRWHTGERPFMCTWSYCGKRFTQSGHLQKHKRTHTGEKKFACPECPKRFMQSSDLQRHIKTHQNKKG
Chain of ZFP SBS#732 (synthetic) (chain, as listed by the source): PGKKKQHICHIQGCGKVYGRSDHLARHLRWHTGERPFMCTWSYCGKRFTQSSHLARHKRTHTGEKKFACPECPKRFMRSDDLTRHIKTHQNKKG

B1: GTGGGGGAGA (dsDNA)
DNA 1: GTGGGGGAGA
DNA 2: TCTCCCCCAC
In the case of B1, the Kd (ZFP SBS#731) is reported as 12 nM.

B2: AAGGCTGAGA (dsDNA)
DNA 1: AAGGCTGAGA
DNA 2: TCTCAGCCTT
For B2, the Kd (ZFP SBS#741) was 15 nM.

B3: CTGGAAGCAT (dsDNA)
DNA 1: CTGGAAGCAT
DNA 2: ATGCTTCCAG
For B3, the Kd (ZFP SBS#746) was 2.07 nM.

B4: ATGGGGGTGG (dsDNA)
DNA 1: ATGGGGGTGG
DNA 2: CCACCCCCAT
For B4, the Kd (ZFP SBS#722) was 0.7 nM.

B5: AAGGTGGCAG (dsDNA)
DNA 1: AAGGTGGCAG
DNA 2: CTGCCACCTT
For B5, the Kd (ZFP SBS#704) was 5 nM, the Kd (ZFP SBS#740) was 12.5 nM and the Kd (ZFP SBS#607) was 6.5 nM.

B6: TTGGGAGCAC (dsDNA)
DNA 1: TTGGGAGCAC
DNA 2: GTGCTCCCAA
B6 showed a Kd (ZFP SBS#718) of 108 nM, a Kd (ZFP SBS#717) of 150 nM and a Kd (ZFP SBS#716) of 200 nM.

B7: GAGGTGGGGA (dsDNA)
DNA 1: GAGGTGGGGA
DNA 2: TCCCCACCTC
Work on B7 yielded a Kd (ZFP SBS#736) of 0.47 nM and a Kd (ZFP SBS#752) of 31 nM.

B8: GAAGAGGATG (dsDNA)
DNA 1: GAAGAGGATG
DNA 2: CATCCTCTTC
B8 was tested, and the Kd (ZFP SBS#720) was 1.6 nM and the Kd (ZFP SBS#726) was 1.5 nM.

B9: ACGGGGTTAT (dsDNA)
DNA 1: ACGGGGTTAT
DNA 2: ATAACCCCGT
Binder B9 has a Kd (ZFP SBS#744) of 8.33 nM, a Kd (ZFP SBS#742) of 29 nM and a Kd (ZFP SBS#745) of 12.5 nM. It also gave a Kd (ZFP SBS#743) of 10 nM.

B10: CTATTTTGGG (dsDNA)
DNA 1: CTATTTTGGG
DNA 2: CCCAAAATAG
Binder B10 has a Kd (ZFP SBS#747) of 2000 nM.

B11: GCTGAGGAA (dsDNA)
DNA 1: GCTGAGGAA
DNA 2: TTCCTCAGC
Work on B11 yielded a Kd (ZFP SBS#427) of 1 nM and a Kd (ZFP SBS#374) of 3.3 nM.

B12: GATGACGAC (dsDNA)
DNA 1: GATGACGAC
DNA 2: GTCGTCATC
B12 gave a Kd (ZFP SBS#430) of 250 nM and a Kd (ZFP SBS#568) of 300 nM.

B13: GGCATGGTGG (dsDNA)
DNA 1: GGCATGGTGG
DNA 2: CCACCATGCC
For B13, the Kd (ZFP SBS#719) was 20 nM and the Kd (ZFP SBS#724) was 2.5 nM.

B14: CGGGCGGCTG (dsDNA)
DNA 1: CGGGCGGCTG
DNA 2: CAGCCGCCCG
B14 showed a Kd (ZFP SBS#757) of 14.5 nM and a Kd (ZFP SBS#758) of 16.5 nM.

B15: GGGGCTGGGT (dsDNA)
DNA 1: GGGGCTGGGT
DNA 2: ACCCAGCCCC
B15 was tested, and the Kd (ZFP SBS#734) was 0.25 nM.

B16: GAAGATGAC (dsDNA)
DNA 1: GAAGATGAC
DNA 2: GTCATCTTC
B16 was tested, and the Kd (ZFP SBS#567) was 47.5 nM, the Kd (ZFP SBS#428) was 120 nM and the Kd (ZFP SBS#429) was 50 nM.

B17: GCGGGTGGGG (dsDNA)
DNA 1: GCGGGTGGGG
DNA 2: CCCCACCCGC
With B17 the Kd (ZFP SBS#733) was 0.32 nM and the Kd (ZFP SBS#732) was 22.5 nM.

B18: GCTTGAGTTA (dsDNA)
DNA 1: GCTTGAGTTA
DNA 2: TAACTCAAGC
Binder B18 has a Kd (ZFP SBS#725) of 3000 nM.

B19: GGTGAGGAGT (dsDNA)
DNA 1: GGTGAGGAGT
DNA 2: ACTCCTCACC
B19 was tested, and the Kd (ZFP SBS#728) was 15 nM, the Kd (ZFP SBS#751) was 7 nM and the Kd (ZFP SBS#713) was 0.15 nM. The Kd (ZFP SBS#712) was 9.5 nM.
